# Experimental data: PMC5032119
# Molecular target: Ku70-HisTag (mouse) (UniProt P23475)
# Assay: fluorescence polarisation; FIDA-PO on an MF20 (Olympus) single molecule fluorescence spectroscopy; 5 nM fluorescent Ku70-HisTag in solution, 500 nM GST-HttExon1-110Q added; 40 ul per well, 384-well glass-bottom plate, PBS with 0.01% Tween 20 and 1% DMSO, room temperature
# GST-HttExon1-110Q, sequence (P42858 whole entry, change not shown): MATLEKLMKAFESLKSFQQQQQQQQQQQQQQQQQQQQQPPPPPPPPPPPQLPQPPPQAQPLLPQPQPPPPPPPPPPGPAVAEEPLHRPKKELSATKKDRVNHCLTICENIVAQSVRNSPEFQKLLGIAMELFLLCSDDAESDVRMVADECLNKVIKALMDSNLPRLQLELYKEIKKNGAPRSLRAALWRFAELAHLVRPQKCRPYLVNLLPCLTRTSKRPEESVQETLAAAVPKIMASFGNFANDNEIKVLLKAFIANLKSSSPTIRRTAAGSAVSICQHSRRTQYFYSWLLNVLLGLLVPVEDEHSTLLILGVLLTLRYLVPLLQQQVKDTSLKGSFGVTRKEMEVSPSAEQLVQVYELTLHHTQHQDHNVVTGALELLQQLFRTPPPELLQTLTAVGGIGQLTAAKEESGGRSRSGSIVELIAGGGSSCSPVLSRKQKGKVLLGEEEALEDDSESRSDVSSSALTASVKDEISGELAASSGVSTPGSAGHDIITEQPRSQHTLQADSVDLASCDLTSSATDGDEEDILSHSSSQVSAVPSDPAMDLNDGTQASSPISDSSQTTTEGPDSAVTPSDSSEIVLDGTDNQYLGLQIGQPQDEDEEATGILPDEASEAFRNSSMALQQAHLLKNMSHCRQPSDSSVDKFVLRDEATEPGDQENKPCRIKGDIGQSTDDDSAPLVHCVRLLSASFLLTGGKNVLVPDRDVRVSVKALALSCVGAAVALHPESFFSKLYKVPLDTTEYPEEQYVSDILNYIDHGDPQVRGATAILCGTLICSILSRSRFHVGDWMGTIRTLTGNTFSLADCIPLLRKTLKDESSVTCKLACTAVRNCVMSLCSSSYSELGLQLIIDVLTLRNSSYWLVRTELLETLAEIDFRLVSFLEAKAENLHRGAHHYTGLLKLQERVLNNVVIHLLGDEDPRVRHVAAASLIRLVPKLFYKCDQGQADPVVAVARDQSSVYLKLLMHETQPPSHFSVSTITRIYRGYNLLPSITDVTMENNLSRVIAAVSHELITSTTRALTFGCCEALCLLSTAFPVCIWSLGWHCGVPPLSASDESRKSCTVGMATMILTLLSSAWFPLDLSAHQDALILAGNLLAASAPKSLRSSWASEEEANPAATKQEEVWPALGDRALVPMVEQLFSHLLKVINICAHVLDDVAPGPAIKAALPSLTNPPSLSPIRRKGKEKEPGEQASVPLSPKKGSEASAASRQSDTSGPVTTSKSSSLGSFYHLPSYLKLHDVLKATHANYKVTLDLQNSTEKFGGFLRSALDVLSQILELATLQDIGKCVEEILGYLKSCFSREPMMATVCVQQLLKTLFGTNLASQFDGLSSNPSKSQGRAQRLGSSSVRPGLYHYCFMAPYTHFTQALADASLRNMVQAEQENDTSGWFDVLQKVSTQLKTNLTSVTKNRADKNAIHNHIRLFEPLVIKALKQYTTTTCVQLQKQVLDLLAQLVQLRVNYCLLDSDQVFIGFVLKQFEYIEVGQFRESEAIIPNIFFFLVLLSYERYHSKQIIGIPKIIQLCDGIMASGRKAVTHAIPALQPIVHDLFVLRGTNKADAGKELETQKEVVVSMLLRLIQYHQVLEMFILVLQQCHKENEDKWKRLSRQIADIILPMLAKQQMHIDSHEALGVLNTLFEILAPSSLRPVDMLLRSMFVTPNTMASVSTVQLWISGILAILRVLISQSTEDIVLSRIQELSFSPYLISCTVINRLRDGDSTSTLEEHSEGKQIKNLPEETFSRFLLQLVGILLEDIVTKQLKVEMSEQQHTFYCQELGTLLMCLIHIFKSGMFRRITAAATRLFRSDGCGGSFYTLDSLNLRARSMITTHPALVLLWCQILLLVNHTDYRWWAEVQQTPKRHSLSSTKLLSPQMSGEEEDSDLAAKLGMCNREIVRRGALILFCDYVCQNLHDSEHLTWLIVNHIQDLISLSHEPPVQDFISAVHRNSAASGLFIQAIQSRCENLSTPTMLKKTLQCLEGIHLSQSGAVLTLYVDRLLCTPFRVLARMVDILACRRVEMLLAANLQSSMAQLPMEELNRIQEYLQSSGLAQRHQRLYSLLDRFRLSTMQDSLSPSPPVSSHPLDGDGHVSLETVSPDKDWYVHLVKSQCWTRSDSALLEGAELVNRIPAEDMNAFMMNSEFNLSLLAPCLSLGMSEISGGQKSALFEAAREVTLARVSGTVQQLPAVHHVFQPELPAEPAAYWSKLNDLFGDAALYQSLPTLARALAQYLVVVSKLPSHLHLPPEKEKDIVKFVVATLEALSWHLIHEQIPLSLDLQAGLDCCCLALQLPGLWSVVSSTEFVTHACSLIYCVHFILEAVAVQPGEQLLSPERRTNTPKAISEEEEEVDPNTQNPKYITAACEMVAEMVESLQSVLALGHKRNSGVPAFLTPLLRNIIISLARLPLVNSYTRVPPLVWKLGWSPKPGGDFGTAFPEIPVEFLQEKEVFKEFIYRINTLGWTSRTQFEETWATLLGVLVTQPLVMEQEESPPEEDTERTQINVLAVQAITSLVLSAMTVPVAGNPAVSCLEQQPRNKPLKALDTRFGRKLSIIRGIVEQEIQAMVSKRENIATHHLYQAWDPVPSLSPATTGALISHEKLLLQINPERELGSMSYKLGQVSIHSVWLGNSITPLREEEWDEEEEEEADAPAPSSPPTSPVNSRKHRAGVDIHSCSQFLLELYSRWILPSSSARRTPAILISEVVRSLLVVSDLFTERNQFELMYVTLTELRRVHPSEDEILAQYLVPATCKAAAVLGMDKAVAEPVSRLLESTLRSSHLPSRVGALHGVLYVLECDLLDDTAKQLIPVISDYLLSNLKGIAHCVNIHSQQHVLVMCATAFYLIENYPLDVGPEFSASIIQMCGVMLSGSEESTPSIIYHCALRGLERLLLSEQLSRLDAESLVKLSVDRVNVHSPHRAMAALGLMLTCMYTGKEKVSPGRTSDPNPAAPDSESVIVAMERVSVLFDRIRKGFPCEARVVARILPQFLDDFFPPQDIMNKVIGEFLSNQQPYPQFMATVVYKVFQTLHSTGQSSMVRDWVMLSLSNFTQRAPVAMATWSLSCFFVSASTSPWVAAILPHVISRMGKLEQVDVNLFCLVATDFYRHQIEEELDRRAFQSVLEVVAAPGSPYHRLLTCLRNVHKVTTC
# UniProt P23475, sequence (P23475 whole entry): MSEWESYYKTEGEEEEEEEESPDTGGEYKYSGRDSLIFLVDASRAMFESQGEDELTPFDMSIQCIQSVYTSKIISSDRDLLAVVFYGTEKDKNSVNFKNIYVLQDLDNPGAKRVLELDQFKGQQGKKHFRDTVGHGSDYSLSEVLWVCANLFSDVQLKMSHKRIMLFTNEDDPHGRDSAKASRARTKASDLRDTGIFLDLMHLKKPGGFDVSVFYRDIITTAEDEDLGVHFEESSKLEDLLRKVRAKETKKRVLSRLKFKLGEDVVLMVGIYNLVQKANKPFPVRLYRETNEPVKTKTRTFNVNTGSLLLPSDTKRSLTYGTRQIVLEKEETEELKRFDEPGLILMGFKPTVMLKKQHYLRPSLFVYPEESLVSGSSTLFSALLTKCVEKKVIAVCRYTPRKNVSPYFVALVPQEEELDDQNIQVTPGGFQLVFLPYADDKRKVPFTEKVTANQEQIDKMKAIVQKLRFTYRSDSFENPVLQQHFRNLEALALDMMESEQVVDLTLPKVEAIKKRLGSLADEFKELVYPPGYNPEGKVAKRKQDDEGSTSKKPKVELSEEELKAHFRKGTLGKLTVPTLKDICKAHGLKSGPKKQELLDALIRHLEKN
substance,measurement,value
GST-HttExon1-110Q (domain or fragment),fluorescence polarization score,140
